We go through two compounds from PMC4255732, “Structural and functional consequences of removing the N-terminal domain from the magnesium chelatase ChlH subunit of Thermosynechococcus elongatus” (Biochemical Journal, 2014).

Experiment [1] addresses T1, MgCH (WT ChlH–I–D) (Thermosynechococcus vestitus, UniProt Q8DM52).
T1 construct: with Magnesium-chelatase subunit ChlI; Magnesium-chelatase subunit ChlD
The experiment is described as follows: continuous fluorescence assay of MgDIX formation at […] nm. The format is biochemical. To be noted: 8 μM DIX, 5 mM ATP, 15 mM MgCl2, 50 mM Mops/KOH pH 7.7, 45 °C, without Gun4.

The target in experiment [2] is T2, ΔN159ChlH (Thermosynechococcus vestitus, UniProt Q8DM52).
T2 construct: gene chlH; N-terminal head domain and linker (159 residues) deleted, starts at Met160; His6-tagged (pET9aHis6); E. coli; about 130 kDa
T2 sequence (Q8DM52 entry or part of it, stated change not applied): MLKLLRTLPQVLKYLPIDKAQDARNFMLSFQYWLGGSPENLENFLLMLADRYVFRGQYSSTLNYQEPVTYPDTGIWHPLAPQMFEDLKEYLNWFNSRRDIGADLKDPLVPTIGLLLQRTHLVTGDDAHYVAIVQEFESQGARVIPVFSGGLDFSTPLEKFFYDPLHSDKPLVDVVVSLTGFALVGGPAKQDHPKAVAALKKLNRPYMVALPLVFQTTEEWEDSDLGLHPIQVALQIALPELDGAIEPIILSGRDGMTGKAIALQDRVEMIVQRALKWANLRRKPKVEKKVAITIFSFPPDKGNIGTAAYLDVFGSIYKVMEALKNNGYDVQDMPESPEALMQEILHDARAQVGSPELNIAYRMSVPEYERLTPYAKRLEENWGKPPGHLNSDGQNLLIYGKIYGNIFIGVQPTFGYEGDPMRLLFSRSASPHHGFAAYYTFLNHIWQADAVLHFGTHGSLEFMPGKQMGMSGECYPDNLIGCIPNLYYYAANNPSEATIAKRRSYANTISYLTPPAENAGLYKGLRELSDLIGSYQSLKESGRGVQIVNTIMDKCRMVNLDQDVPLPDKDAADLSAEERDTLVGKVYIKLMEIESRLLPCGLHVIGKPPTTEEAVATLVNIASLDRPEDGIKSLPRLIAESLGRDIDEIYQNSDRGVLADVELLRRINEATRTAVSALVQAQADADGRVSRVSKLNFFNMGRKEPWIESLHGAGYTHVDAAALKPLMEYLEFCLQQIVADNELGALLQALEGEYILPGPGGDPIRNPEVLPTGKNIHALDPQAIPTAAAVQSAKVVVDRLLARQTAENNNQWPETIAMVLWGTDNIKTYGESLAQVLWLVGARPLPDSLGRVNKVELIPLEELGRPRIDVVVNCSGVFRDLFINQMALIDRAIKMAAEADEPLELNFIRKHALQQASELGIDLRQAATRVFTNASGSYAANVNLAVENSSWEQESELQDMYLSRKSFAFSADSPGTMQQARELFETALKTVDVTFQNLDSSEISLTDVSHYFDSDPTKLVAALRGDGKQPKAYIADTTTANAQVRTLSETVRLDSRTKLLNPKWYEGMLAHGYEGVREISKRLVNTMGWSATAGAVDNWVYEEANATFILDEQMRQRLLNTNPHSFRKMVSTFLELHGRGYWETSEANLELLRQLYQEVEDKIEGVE
The experiment is described as follows: tryptophan fluorescence quenching. The format is binding.

The target in experiment [3] is ΔN159ChlH, N-terminally truncated ChlH subunit of Thermosynechococcus elongatus (Thermosynechococcus elongatus).
Experiment [4] addresses magnesium chelatase ChlH subunit of Thermosynechococcus elongatus, wild type (Thermosynechococcus elongatus).
Experiment [5] concerns the target ΔN159ChlH, N-terminally truncated ChlH subunit of Thermosynechococcus elongatus (Thermosynechococcus elongatus). Kind of experiment: FRET or BRET; 0.1 μM ChlH (WT or ΔN159) labelled with Atto 488, titrated with Gun4 labelled with Alexa Fluor 532; quenching of emission at 524 nm; 50 mM Tricine/NaOH, 0.3 M glycerol, 200 mM NaCl, pH 7.7 (methods; the legend says 7.9), 45°C; apparent Kd from eqn (1). In general terms: BRET reads energy transfer from a luciferase to a nearby fluorophore.

Experiment [6] addresses magnesium chelatase ChlH subunit of Thermosynechococcus elongatus, wild type (Thermosynechococcus elongatus). The experiment is described as above.

T1 sequence (Q8DM52 1-1326): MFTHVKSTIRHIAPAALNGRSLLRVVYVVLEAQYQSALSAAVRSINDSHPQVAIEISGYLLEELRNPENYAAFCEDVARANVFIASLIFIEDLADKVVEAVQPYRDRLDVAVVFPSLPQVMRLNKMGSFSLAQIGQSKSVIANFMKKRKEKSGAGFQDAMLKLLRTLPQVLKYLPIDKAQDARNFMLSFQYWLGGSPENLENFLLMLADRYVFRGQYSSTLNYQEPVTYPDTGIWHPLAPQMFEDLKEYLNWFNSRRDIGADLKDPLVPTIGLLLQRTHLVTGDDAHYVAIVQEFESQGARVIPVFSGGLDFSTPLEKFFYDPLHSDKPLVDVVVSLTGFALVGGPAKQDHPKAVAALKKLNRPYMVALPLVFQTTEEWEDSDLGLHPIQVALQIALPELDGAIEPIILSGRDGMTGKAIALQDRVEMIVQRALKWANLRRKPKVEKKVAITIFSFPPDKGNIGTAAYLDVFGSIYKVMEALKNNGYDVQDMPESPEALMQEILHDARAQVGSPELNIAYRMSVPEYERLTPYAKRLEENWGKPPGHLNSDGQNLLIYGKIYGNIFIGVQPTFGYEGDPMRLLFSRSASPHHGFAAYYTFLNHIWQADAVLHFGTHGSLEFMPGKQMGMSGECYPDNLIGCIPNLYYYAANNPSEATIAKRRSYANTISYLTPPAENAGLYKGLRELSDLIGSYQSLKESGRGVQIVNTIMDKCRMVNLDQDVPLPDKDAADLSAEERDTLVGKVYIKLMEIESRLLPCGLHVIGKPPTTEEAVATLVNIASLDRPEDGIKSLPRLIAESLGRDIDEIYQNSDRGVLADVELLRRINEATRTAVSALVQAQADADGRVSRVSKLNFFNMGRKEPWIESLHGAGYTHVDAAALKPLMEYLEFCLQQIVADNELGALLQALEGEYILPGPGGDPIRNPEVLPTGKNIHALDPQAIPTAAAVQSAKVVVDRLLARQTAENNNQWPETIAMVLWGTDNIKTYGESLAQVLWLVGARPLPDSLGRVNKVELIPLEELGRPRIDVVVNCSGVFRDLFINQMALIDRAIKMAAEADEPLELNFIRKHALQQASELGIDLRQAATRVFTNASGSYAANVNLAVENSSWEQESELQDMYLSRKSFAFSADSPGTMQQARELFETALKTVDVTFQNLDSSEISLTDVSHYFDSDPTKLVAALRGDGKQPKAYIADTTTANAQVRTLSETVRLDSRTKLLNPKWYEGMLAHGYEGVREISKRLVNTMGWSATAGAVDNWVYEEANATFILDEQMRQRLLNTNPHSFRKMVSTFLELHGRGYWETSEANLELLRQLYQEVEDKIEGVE
T1 sequence (Q8DIS0 13-367 partner): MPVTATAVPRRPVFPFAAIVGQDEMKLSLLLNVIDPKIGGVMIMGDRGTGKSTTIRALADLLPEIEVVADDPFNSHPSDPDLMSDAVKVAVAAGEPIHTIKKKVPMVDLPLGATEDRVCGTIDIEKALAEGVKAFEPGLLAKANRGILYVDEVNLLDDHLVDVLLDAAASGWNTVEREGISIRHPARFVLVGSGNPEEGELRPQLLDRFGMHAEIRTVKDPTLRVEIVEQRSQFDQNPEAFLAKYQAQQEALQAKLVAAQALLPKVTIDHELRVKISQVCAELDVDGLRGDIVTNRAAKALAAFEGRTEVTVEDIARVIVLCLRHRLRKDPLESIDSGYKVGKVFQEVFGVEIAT
T1 sequence (Q8DJ18 1-668 partner): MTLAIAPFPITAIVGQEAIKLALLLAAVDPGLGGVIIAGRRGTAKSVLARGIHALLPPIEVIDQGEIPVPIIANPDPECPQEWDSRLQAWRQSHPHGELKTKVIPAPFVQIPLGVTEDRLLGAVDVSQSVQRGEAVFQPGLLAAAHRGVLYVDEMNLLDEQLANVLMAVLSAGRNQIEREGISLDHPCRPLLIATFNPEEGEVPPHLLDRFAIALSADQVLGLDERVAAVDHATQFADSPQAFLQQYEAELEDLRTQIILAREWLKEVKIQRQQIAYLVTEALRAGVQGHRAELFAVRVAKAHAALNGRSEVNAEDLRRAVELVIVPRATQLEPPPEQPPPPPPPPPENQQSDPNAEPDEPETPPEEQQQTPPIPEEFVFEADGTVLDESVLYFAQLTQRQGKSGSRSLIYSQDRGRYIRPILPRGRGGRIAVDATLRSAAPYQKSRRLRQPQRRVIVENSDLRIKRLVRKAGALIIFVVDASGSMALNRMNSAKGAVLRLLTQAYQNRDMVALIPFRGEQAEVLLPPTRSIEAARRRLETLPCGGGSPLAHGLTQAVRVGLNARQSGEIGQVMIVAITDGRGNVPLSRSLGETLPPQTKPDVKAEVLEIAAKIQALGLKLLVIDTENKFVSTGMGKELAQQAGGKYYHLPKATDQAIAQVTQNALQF

As to `CC1=C(CCC(=O)O)c2cc3nc(cc4[nH]c(cc4C)cc4[nH]c(cc1n2)cc4C)C(C)=C3CCC(=O)O` [DIX], in experiment [1], the “continuous fluorescence assay of MgDIX formation at 580 nm” value is “assayed for in vitro MgCH activity by continuously monitoring fluorescence from the MgDIX product”. Also, the Kd in experiment [2] was found to be 1.06 ± 0.09 µM.

The compound “Gun4 protein of Thermosynechococcus elongatus (natural protein)” had a Kapp from steady-state magnesium chelatase rates against [Gun4] (0.1 μM ChlD, 0.2 μM ChlI, 0.4 μM ΔN159ChlH, 45°C, eqn (2), nd held at 0.4) in experiment [3] of 0.05 µM. Also, the Kapp from steady-state magnesium chelatase rates against [Gun4] (0.1 μM ChlD, 0.2 μM ChlI, 0.4 μM ChlH, 45°C, eqn (2), nd held at 0.4) in experiment [4] is 0.39 µM. For the same compound, the Kd in experiment [5] stood at 0.016 µM; in experiment [6], 0.009 µM.
